In PMC3117669 (The Biochemical journal, 2010):
Values joined by “and” are separate entries in the source; they are usually repeats but may differ in a detail not shown here. Identical values can stand only once. Values belong to the binder of their own block, whether it stands above or below them.

How the values were obtained:
[1] = biological target: the molecule itself; test: native gel or EMSA
[2] = biological target: T1, GST-lipin 1b (1-641) (mouse, UniProt Q91ZP3 1-641); test: pull-down
T1 sequence (looked up): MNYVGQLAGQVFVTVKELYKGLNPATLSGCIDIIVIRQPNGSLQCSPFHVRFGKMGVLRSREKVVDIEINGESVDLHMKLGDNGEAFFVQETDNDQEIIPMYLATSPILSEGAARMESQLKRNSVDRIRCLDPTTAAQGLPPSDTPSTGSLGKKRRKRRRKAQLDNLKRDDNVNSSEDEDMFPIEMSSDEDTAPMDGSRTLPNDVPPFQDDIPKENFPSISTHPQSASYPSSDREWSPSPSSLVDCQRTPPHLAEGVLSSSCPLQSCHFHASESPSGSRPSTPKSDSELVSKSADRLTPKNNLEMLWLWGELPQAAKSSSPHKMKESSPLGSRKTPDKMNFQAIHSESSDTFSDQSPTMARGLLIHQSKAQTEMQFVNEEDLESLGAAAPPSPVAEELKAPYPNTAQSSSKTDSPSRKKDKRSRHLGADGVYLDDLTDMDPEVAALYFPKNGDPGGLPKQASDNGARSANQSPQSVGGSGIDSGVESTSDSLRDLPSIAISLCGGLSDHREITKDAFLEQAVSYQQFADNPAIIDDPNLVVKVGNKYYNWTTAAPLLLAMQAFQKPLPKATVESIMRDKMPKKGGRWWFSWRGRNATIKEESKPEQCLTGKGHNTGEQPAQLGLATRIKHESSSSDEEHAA

[3] = biological target: T2, V5-lipin 1b (469-924), immunopurified (mouse, UniProt Q91ZP3 469-924); test: pull-down
T2 sequence (looked up): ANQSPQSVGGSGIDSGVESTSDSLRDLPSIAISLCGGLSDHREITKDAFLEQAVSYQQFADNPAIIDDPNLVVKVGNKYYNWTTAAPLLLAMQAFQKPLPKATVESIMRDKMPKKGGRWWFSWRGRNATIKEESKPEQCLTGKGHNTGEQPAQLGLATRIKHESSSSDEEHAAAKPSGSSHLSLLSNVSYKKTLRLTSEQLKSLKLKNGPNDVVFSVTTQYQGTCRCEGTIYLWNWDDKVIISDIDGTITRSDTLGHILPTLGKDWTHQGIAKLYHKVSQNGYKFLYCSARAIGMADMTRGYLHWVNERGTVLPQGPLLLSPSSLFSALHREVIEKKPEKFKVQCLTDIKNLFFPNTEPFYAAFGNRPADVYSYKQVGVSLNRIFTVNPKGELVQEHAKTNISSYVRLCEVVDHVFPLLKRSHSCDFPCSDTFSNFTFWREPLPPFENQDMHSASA

B1: lipin 1b-V5 (HEK293A) (natural protein, mouse, UniProt Q91ZP3 1-924, looked up)
chain: MNYVGQLAGQVFVTVKELYKGLNPATLSGCIDIIVIRQPNGSLQCSPFHVRFGKMGVLRSREKVVDIEINGESVDLHMKLGDNGEAFFVQETDNDQEIIPMYLATSPILSEGAARMESQLKRNSVDRIRCLDPTTAAQGLPPSDTPSTGSLGKKRRKRRRKAQLDNLKRDDNVNSSEDEDMFPIEMSSDEDTAPMDGSRTLPNDVPPFQDDIPKENFPSISTHPQSASYPSSDREWSPSPSSLVDCQRTPPHLAEGVLSSSCPLQSCHFHASESPSGSRPSTPKSDSELVSKSADRLTPKNNLEMLWLWGELPQAAKSSSPHKMKESSPLGSRKTPDKMNFQAIHSESSDTFSDQSPTMARGLLIHQSKAQTEMQFVNEEDLESLGAAAPPSPVAEELKAPYPNTAQSSSKTDSPSRKKDKRSRHLGADGVYLDDLTDMDPEVAALYFPKNGDPGGLPKQASDNGARSANQSPQSVGGSGIDSGVESTSDSLRDLPSIAISLCGGLSDHREITKDAFLEQAVSYQQFADNPAIIDDPNLVVKVGNKYYNWTTAAPLLLAMQAFQKPLPKATVESIMRDKMPKKGGRWWFSWRGRNATIKEESKPEQCLTGKGHNTGEQPAQLGLATRIKHESSSSDEEHAAAKPSGSSHLSLLSNVSYKKTLRLTSEQLKSLKLKNGPNDVVFSVTTQYQGTCRCEGTIYLWNWDDKVIISDIDGTITRSDTLGHILPTLGKDWTHQGIAKLYHKVSQNGYKFLYCSARAIGMADMTRGYLHWVNERGTVLPQGPLLLSPSSLFSALHREVIEKKPEKFKVQCLTDIKNLFFPNTEPFYAAFGNRPADVYSYKQVGVSLNRIFTVNPKGELVQEHAKTNISSYVRLCEVVDHVFPLLKRSHSCDFPCSDTFSNFTFWREPLPPFENQDMHSASA
stoichiometry N [1]: 2 and 4

binding result [2]: binds
B2: V5-lipin 1b (1-171), immunopurified (domain or fragment, mouse, UniProt Q91ZP3 1-171, looked up)
chain: MNYVGQLAGQVFVTVKELYKGLNPATLSGCIDIIVIRQPNGSLQCSPFHVRFGKMGVLRSREKVVDIEINGESVDLHMKLGDNGEAFFVQETDNDQEIIPMYLATSPILSEGAARMESQLKRNSVDRIRCLDPTTAAQGLPPSDTPSTGSLGKKRRKRRRKAQLDNLKRDD

binding result [3]: binds
B3: GST-lipin 1b (642-924) (domain or fragment, mouse, UniProt Q91ZP3 642-924, looked up)
chain: AKPSGSSHLSLLSNVSYKKTLRLTSEQLKSLKLKNGPNDVVFSVTTQYQGTCRCEGTIYLWNWDDKVIISDIDGTITRSDTLGHILPTLGKDWTHQGIAKLYHKVSQNGYKFLYCSARAIGMADMTRGYLHWVNERGTVLPQGPLLLSPSSLFSALHREVIEKKPEKFKVQCLTDIKNLFFPNTEPFYAAFGNRPADVYSYKQVGVSLNRIFTVNPKGELVQEHAKTNISSYVRLCEVVDHVFPLLKRSHSCDFPCSDTFSNFTFWREPLPPFENQDMHSASA
